Conditions: pH 7.4
Experimental: For protein targets with no known binding partners and no available activity assays (ERG and IRAK2), we recorded circular dichroism (CD) spectra and compared them to recombinantly derived material.
ERG and IRAK2 Circular Dichroism
Before analysis, all proteins were exchanged into CD buffer (10 mM KP i, 5% glycerol v/v, pH 7.4).
Fast protein liquid chromatography (FPLC) purification was performed using GE Life Sciences
columns on an ÄKTA Pure FPLC system. The ÄKTA Pure, FPLC columns, and all buffers were
stored and subsequently used in a cold room maintained at 4 °C. HiTrap™ Desalting 5 mL: Before
desalting, the column was equilibrated with 20 mL of the CD buffer at 2 mL/min or until the
conductance reading from the ÄKTA Pure stabilizes, whichever is the greater volume. Up to 1.5
mL of sample was loaded into the column using a syringe fitted with a compatible male-end screw
tip, and then the loaded column was attached to the ÄKTA Pure. An isocratic flow of buffer (2 CV) […]
protein solution was determined with Method 1.6.1. […]
mg/mL with additions of CD buffer. All CD spectra were recorded on an AVIV Model 420 Circular […]
Before all readings, cuvettes were cleaned with Hellmanex™ 3 concentrate according to
manufacturer directions. Far circular dichroism spectra were recorded as the average of three […]
with 2 nm bandwidth and 8 second averaging time. Spectra were recorded between 0 and 110 […]

B1: Recombinant ERG: ERG (115-208) recombinantly expressed in E. coli (protein, UniProt P11308 115-208, looked up, fragment)
chain: PPNMTTNERRVIVPADPTLWSTDHVRQWLEWAVKEYGLPDVNILLFQNIDGKELCKMTKDDFQRLTPSYNADILLSHLHYLRETPLPHLTSDDV
For B1, the “TM (melting temperature), ERG” value was 71.7±0.8 ºC.

From PMC10901774, “Mirror-image ligand discovery enabled by single-shot fast-flow synthesis of D-proteins” (Nature Communications, 2024)
